Laboratory results: patent publication US20230357348A1 (AstraZeneca / MedImmune, published 2023)
Starred links: 1 amine or outer side, 2 acyl side, 3 side chain; linkers in the order of their positions; H or OH if unused. Non-standard residues stand in square brackets, D forms with d. Groups on a side chain read outwards from the residue. No end group written: not given here. *: point of attachment. C18 diacid = O=C(O)CCCCCCCCCCCCCCCCC(=O)*; γGlu = O=C(O)[C@H](CCC(=O)[*:2])N[*:1]; αMeF = C[C@](N)(Cc1ccccc1)C(=O)O; AEEA = NCCOCCOCC(=O)O; Aib = CC(C)(N)C(=O)O

B1: Peptide 146 (peptide)
peptide: H[Aib]QGTFTSDVSK[αMeF]LDSK([AEEA-AEEA-γGlu-C18 diacid])RAQDFVRWLASR-OH
modifications: N-terminus assumed
SMILES: CC(C)C[C@H](NC(=O)[C@H](Cc1c[nH]c2ccccc12)NC(=O)[C@H](CCCNC(=N)N)NC(=O)[C@@H](NC(=O)[C@H](Cc1ccccc1)NC(=O)[C@H](CC(=O)O)NC(=O)[C@H](CCC(N)=O)NC(=O)[C@H](C)NC(=O)[C@H](CCCNC(=N)N)NC(=O)[C@H](CCCCNC(=O)COCCOCCNC(=O)COCCOCCNC(=O)CC[C@H](NC(=O)CCCCCCCCCCCCCCCCC(=O)O)C(=O)O)NC(=O)[C@H](CO)NC(=O)[C@H](CC(=O)O)NC(=O)[C@H](CC(C)C)NC(=O)[C@](C)(Cc1ccccc1)NC(=O)[C@H](CCCCN)NC(=O)[C@H](CO)NC(=O)[C@@H](NC(=O)[C@H](CC(=O)O)NC(=O)[C@H](CO)NC(=O)[C@@H](NC(=O)[C@H](Cc1ccccc1)NC(=O)[C@@H](NC(=O)CNC(=O)[C@H](CCC(N)=O)NC(=O)C(C)(C)NC(=O)[C@@H](N)Cc1c[nH]cn1)[C@@H](C)O)[C@@H](C)O)C(C)C)C(C)C)C(=O)N[C@@H](C)C(=O)N[C@@H](CO)C(=O)N[C@@H](CCCNC(=N)N)C(=O)O
B2: Peptide 148 (peptide)
peptide: H[Aib]QGTFTSDVSK[αMeF]LDSK([AEEA-AEEA-γGlu-C18 diacid])RAQDFVRWIAE[Aib]G-OH
modifications: N-terminus assumed
SMILES: CC[C@H](C)[C@H](NC(=O)[C@H](Cc1c[nH]c2ccccc12)NC(=O)[C@H](CCCNC(=N)N)NC(=O)[C@@H](NC(=O)[C@H](Cc1ccccc1)NC(=O)[C@H](CC(=O)O)NC(=O)[C@H](CCC(N)=O)NC(=O)[C@H](C)NC(=O)[C@H](CCCNC(=N)N)NC(=O)[C@H](CCCCNC(=O)COCCOCCNC(=O)COCCOCCNC(=O)CC[C@H](NC(=O)CCCCCCCCCCCCCCCCC(=O)O)C(=O)O)NC(=O)[C@H](CO)NC(=O)[C@H](CC(=O)O)NC(=O)[C@H](CC(C)C)NC(=O)[C@](C)(Cc1ccccc1)NC(=O)[C@H](CCCCN)NC(=O)[C@H](CO)NC(=O)[C@@H](NC(=O)[C@H](CC(=O)O)NC(=O)[C@H](CO)NC(=O)[C@@H](NC(=O)[C@H](Cc1ccccc1)NC(=O)[C@@H](NC(=O)CNC(=O)[C@H](CCC(N)=O)NC(=O)C(C)(C)NC(=O)[C@@H](N)Cc1c[nH]cn1)[C@@H](C)O)[C@@H](C)O)C(C)C)C(C)C)C(=O)N[C@@H](C)C(=O)N[C@@H](CCC(=O)O)C(=O)NC(C)(C)C(=O)NCC(=O)O
B3: Peptide 144 (peptide)
peptide: H[Aib]QGTFTSDVSK[αMeF]LDSK([γGlu-γGlu-AEEA-AEEA-γGlu-γGlu-C18 diacid])RARDFVRWLLE[Aib]G-OH
modifications: N-terminus assumed
SMILES: CC(C)C[C@H](NC(=O)[C@H](Cc1c[nH]c2ccccc12)NC(=O)[C@H](CCCNC(=N)N)NC(=O)[C@@H](NC(=O)[C@H](Cc1ccccc1)NC(=O)[C@H](CC(=O)O)NC(=O)[C@H](CCCNC(=N)N)NC(=O)[C@H](C)NC(=O)[C@H](CCCNC(=N)N)NC(=O)[C@H](CCCCNC(=O)CC[C@H](NC(=O)CC[C@H](NC(=O)COCCOCCNC(=O)COCCOCCNC(=O)CC[C@H](NC(=O)CC[C@H](NC(=O)CCCCCCCCCCCCCCCCC(=O)O)C(=O)O)C(=O)O)C(=O)O)C(=O)O)NC(=O)[C@H](CO)NC(=O)[C@H](CC(=O)O)NC(=O)[C@H](CC(C)C)NC(=O)[C@](C)(Cc1ccccc1)NC(=O)[C@H](CCCCN)NC(=O)[C@H](CO)NC(=O)[C@@H](NC(=O)[C@H](CC(=O)O)NC(=O)[C@H](CO)NC(=O)[C@@H](NC(=O)[C@H](Cc1ccccc1)NC(=O)[C@@H](NC(=O)CNC(=O)[C@H](CCC(N)=O)NC(=O)C(C)(C)NC(=O)[C@@H](N)Cc1c[nH]cn1)[C@@H](C)O)[C@@H](C)O)C(C)C)C(C)C)C(=O)N[C@@H](CC(C)C)C(=O)N[C@@H](CCC(=O)O)C(=O)NC(C)(C)C(=O)NCC(=O)O
B4: Peptide 145 (peptide)
peptide: H[Aib]QGTFTSDVSK[αMeF]LDSK([AEEA-AEEA-γGlu-C18 diacid])RAQDFVRWLASRGI-OH
modifications: N-terminus assumed
SMILES: CC[C@H](C)[C@H](NC(=O)CNC(=O)[C@H](CCCNC(=N)N)NC(=O)[C@H](CO)NC(=O)[C@H](C)NC(=O)[C@H](CC(C)C)NC(=O)[C@H](Cc1c[nH]c2ccccc12)NC(=O)[C@H](CCCNC(=N)N)NC(=O)[C@@H](NC(=O)[C@H](Cc1ccccc1)NC(=O)[C@H](CC(=O)O)NC(=O)[C@H](CCC(N)=O)NC(=O)[C@H](C)NC(=O)[C@H](CCCNC(=N)N)NC(=O)[C@H](CCCCNC(=O)COCCOCCNC(=O)COCCOCCNC(=O)CC[C@H](NC(=O)CCCCCCCCCCCCCCCCC(=O)O)C(=O)O)NC(=O)[C@H](CO)NC(=O)[C@H](CC(=O)O)NC(=O)[C@H](CC(C)C)NC(=O)[C@](C)(Cc1ccccc1)NC(=O)[C@H](CCCCN)NC(=O)[C@H](CO)NC(=O)[C@@H](NC(=O)[C@H](CC(=O)O)NC(=O)[C@H](CO)NC(=O)[C@@H](NC(=O)[C@H](Cc1ccccc1)NC(=O)[C@@H](NC(=O)CNC(=O)[C@H](CCC(N)=O)NC(=O)C(C)(C)NC(=O)[C@@H](N)Cc1c[nH]cn1)[C@@H](C)O)[C@@H](C)O)C(C)C)C(C)C)C(=O)O
B5: Peptide 147 (peptide)
peptide: H[Aib]QGTFTSDVSK[αMeF]LDSK([AEEA-AEEA-γGlu-C18 diacid])RAQDFVRWLEA[Aib]G-OH
modifications: N-terminus assumed
SMILES: CC(C)C[C@H](NC(=O)[C@H](Cc1c[nH]c2ccccc12)NC(=O)[C@H](CCCNC(=N)N)NC(=O)[C@@H](NC(=O)[C@H](Cc1ccccc1)NC(=O)[C@H](CC(=O)O)NC(=O)[C@H](CCC(N)=O)NC(=O)[C@H](C)NC(=O)[C@H](CCCNC(=N)N)NC(=O)[C@H](CCCCNC(=O)COCCOCCNC(=O)COCCOCCNC(=O)CC[C@H](NC(=O)CCCCCCCCCCCCCCCCC(=O)O)C(=O)O)NC(=O)[C@H](CO)NC(=O)[C@H](CC(=O)O)NC(=O)[C@H](CC(C)C)NC(=O)[C@](C)(Cc1ccccc1)NC(=O)[C@H](CCCCN)NC(=O)[C@H](CO)NC(=O)[C@@H](NC(=O)[C@H](CC(=O)O)NC(=O)[C@H](CO)NC(=O)[C@@H](NC(=O)[C@H](Cc1ccccc1)NC(=O)[C@@H](NC(=O)CNC(=O)[C@H](CCC(N)=O)NC(=O)C(C)(C)NC(=O)[C@@H](N)Cc1c[nH]cn1)[C@@H](C)O)[C@@H](C)O)C(C)C)C(C)C)C(=O)N[C@@H](CCC(=O)O)C(=O)N[C@@H](C)C(=O)NC(C)(C)C(=O)NCC(=O)O
B6: Peptide 143 (peptide)
peptide: H[Aib]QGTFTSDVSK[αMeF]LDSK([AEEA-AEEA-γGlu-C18 diacid])RARDFVQWLLE[Aib]G-OH
modifications: N-terminus assumed
SMILES: CC(C)C[C@H](NC(=O)[C@H](Cc1c[nH]c2ccccc12)NC(=O)[C@H](CCC(N)=O)NC(=O)[C@@H](NC(=O)[C@H](Cc1ccccc1)NC(=O)[C@H](CC(=O)O)NC(=O)[C@H](CCCNC(=N)N)NC(=O)[C@H](C)NC(=O)[C@H](CCCNC(=N)N)NC(=O)[C@H](CCCCNC(=O)COCCOCCNC(=O)COCCOCCNC(=O)CC[C@H](NC(=O)CCCCCCCCCCCCCCCCC(=O)O)C(=O)O)NC(=O)[C@H](CO)NC(=O)[C@H](CC(=O)O)NC(=O)[C@H](CC(C)C)NC(=O)[C@](C)(Cc1ccccc1)NC(=O)[C@H](CCCCN)NC(=O)[C@H](CO)NC(=O)[C@@H](NC(=O)[C@H](CC(=O)O)NC(=O)[C@H](CO)NC(=O)[C@@H](NC(=O)[C@H](Cc1ccccc1)NC(=O)[C@@H](NC(=O)CNC(=O)[C@H](CCC(N)=O)NC(=O)C(C)(C)NC(=O)[C@@H](N)Cc1c[nH]cn1)[C@@H](C)O)[C@@H](C)O)C(C)C)C(C)C)C(=O)N[C@@H](CC(C)C)C(=O)N[C@@H](CCC(=O)O)C(=O)NC(C)(C)C(=O)NCC(=O)O
B7: Peptide 142 (peptide)
peptide: H[Aib]QGTFTSDVSK[αMeF]LDSK([AEEA-AEEA-γGlu-C18 diacid])RARDFVAWLLE[Aib]G-OH
modifications: N-terminus assumed
SMILES: CC(C)C[C@H](NC(=O)[C@H](Cc1c[nH]c2ccccc12)NC(=O)[C@H](C)NC(=O)[C@@H](NC(=O)[C@H](Cc1ccccc1)NC(=O)[C@H](CC(=O)O)NC(=O)[C@H](CCCNC(=N)N)NC(=O)[C@H](C)NC(=O)[C@H](CCCNC(=N)N)NC(=O)[C@H](CCCCNC(=O)COCCOCCNC(=O)COCCOCCNC(=O)CC[C@H](NC(=O)CCCCCCCCCCCCCCCCC(=O)O)C(=O)O)NC(=O)[C@H](CO)NC(=O)[C@H](CC(=O)O)NC(=O)[C@H](CC(C)C)NC(=O)[C@](C)(Cc1ccccc1)NC(=O)[C@H](CCCCN)NC(=O)[C@H](CO)NC(=O)[C@@H](NC(=O)[C@H](CC(=O)O)NC(=O)[C@H](CO)NC(=O)[C@@H](NC(=O)[C@H](Cc1ccccc1)NC(=O)[C@@H](NC(=O)CNC(=O)[C@H](CCC(N)=O)NC(=O)C(C)(C)NC(=O)[C@@H](N)Cc1c[nH]cn1)[C@@H](C)O)[C@@H](C)O)C(C)C)C(C)C)C(=O)N[C@@H](CC(C)C)C(=O)N[C@@H](CCC(=O)O)C(=O)NC(C)(C)C(=O)NCC(=O)O

Columns and labels:
[1] = biological target: human GLP-1 receptor (hGLP-1R) (human, UniProt P43220 24-463); test: cell-based or functional assay
[2] = biological target: human glucagon receptor (hGCGR) (human, UniProt P47871 26-477); test: cell-based or functional assay
Sequence of human glucagon receptor (hGCGR) (P47871 26-477): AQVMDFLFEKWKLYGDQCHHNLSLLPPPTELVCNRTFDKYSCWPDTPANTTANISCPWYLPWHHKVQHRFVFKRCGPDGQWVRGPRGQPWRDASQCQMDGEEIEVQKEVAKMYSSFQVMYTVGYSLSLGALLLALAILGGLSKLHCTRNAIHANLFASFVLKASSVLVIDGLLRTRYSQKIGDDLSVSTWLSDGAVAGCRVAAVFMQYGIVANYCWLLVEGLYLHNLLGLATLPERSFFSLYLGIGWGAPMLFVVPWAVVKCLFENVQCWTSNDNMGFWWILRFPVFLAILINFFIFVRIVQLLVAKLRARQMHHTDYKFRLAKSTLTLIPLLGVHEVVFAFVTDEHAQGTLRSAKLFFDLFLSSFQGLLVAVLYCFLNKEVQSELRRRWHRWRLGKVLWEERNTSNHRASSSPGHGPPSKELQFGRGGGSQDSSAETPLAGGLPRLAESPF

Binder | hGLP-1R EC50 (pM) [1] [pM] | hGluc-R EC50 (pM) [2] [pM]
B1 | 24.6 | 1630
B2 | 40.2 | 568
B3 | 45.2 | 702
B4 | 22.6 | 4590
B5 | 15.3 | 43.5
B6 | 19.1 | 32.6
B7 | 59.4 | 108
